In publication PMC7697101 one finds increase in blood flow (cessation time) in cerebral venules of sickle cell transgenic mice given AnxA1 (Ac2-26) 4 mg/kg vs. saline, light/dye thrombosis; mitigated by co-administration of Boc2 or WRW4 data, which are given here for 1 molecule.

The target of the test is formyl peptide receptor 2 (Fpr2/ALX), murine (mouse (endogenous in C57BL/6 and STM mice)) (UniProt O88536).

No end group written: not given here.

UniProt O88536, sequence (O88536 whole entry): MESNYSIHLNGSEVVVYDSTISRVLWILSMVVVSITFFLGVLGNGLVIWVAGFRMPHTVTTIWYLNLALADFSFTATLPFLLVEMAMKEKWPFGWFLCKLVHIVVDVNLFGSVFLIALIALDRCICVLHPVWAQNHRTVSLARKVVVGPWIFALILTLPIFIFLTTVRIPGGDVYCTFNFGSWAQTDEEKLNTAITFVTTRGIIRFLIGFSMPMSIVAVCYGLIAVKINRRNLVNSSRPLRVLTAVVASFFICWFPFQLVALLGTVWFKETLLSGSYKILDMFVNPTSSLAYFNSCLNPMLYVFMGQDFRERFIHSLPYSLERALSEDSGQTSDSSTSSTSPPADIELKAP

Regarding Ac-AMVSEFLKQAWFIENEEQEYVQTVK [AnxA1 mimetic peptide AnxA1_(Ac2-26)], the increase in blood flow (cessation time) in cerebral venules of sickle cell transgenic mice given AnxA1 (Ac2-26) 4 mg/kg vs. saline, light/dye thrombosis; mitigated by co-administration of Boc2 or WRW4 turned out to be 63.5%.
